What was measured:
IL-1R3 = target: T1, IL-1R3 (human, UniProt Q9NPH3 21-570); test: cell-based or functional assay
T1 sequence (looked up): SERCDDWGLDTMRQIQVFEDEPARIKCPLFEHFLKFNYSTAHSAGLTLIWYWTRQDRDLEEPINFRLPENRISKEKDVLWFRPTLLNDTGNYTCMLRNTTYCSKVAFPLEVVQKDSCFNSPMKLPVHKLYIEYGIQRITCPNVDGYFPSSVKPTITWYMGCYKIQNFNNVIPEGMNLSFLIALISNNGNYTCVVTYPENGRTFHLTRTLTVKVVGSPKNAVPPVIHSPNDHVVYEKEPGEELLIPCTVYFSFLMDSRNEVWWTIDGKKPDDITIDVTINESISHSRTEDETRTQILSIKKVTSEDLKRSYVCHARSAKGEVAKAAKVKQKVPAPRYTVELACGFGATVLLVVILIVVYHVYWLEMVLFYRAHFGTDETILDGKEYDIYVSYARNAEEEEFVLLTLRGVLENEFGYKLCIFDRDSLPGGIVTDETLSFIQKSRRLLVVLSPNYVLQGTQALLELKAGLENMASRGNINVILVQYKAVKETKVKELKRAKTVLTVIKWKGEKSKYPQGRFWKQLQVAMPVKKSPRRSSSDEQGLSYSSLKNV

[1] = target: T2, FcgammaRIIIa (V158) expressed on Jurkat effector cells (UniProt P08637 17-254, limits assumed); test: cell based ADCC reporter gene assay, Jurkat FcgammaRIIIa (V158) effector cells with CHO IL1R3 target cells
T2 construct: whole, on cells; also called FcγRIII; Fc receptor of the effector cells
Description: The anti-IL-1R3 antibody in IgG1-LALA and IgG4-P-FALA format was tested for any ADCC activity using a reporter gene assay (iLite ADCC Bioassay #BM5001, SVAR Life Sciences, Malmö). This assay uses reporter-gene-carrying effector cells (Jurkat cells expression FcgammaRIIIa (V158)) that are used in conjunction with target cells that express the specific antigen at constant high levels (i.e. CHO ILIR3 target cells). Binding of the antibody to the target cell and binding of the effector cell to the Fc receptor of the antibody results in expression of the firefly luciferase reporter gene in the effector cell. The promoter of the firefly luciferase in the effector cells includes binding sites for NfkB, AP1, NFAT, CRE and STAT and thus includes the five principal transcription factors of the FcγRIII signal transduction pathway. The effector cells further comprise Renilla luciferase for normalization purposes.

IL8 release_hIL1b & hIL33 & IL36g, rel IC50 in nM (IL-1R3): 8.5 nM | IL8 release_hIL1b & hIL36g, rel IC50 in nM (IL-1R3): 2.38 nM | IL8 release_hIL1 beta, rel IC50 in nM (IL-1R3): 13.4 nM | IL8 release_hIL33, rel IC50 in nM (IL-1R3): 2.34 nM | IL8 release_hIL36g, rel IC50 in nM (IL-1R3): 0.45 nM | binding result [1]: no binding
B1: anti-IL-1R3-IgG4-P-FALA (antibody)
heavy: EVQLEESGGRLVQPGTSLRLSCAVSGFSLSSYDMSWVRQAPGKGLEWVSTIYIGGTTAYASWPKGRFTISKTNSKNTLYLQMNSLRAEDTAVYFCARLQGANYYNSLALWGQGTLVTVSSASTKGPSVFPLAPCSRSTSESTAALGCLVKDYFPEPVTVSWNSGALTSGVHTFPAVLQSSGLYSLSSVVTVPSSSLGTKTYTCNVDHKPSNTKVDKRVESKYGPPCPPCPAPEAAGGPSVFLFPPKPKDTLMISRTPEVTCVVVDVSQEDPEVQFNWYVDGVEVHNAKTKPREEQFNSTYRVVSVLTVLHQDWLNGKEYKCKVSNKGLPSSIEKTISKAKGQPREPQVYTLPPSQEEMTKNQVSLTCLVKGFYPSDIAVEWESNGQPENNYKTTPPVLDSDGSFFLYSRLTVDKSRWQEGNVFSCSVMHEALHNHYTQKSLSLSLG
light: DVQMTQSPSSLSASVGDRVTITCQASQSIYSFLSWYQQKPGQAPKLLIYAASDLESGVPSRFSGSGSGTDFTLTISSLQPEDFATYYCQSNYIIDYGAFGQGTKVVIKRTVAAPSVFIFPPSDEQLKSGTASVVCLLNNFYPREAKVQWKVDNALQSGNSQESVTEQDSKDSTYSLSSTLTLSKADYEKHKVYACEVTHQGLSSPVTKSFNRGEC
notes: Humanized antibody, human IgG4 backbone with S228P, F234A, L235A (EU) in the Fc region; also called anti-IL-1R3 IgG4-P-FALA Ab; aIL-1R3-IgG4; copies: 2 + 2
